Columns and labels:
[1] = target: T1, PCNA (human, UniProt P12004 1-261); test: co-immunoprecipitation with anti-PCNA from transfected HCT116 cells, anti-HA Western blot
T1 construct: Endogenous cellular protein
Method: (§1) The immunoprecipitates were then analyzed by Western blot with anti-HA antibody.

[2] = target: T2, Cdc2 (human, UniProt P06493 1-297); test: co-immunoprecipitation with anti-Cdc2 from transfected HCT116 cells, anti-HA Western blot
T2 construct: Endogenous cellular protein; also called cellular Cdc2; Cdc2 polypeptide
Method: as §1

[3] = target: T3, p21^Cip1/Wafl (human, UniProt P38936 1-164, limits assumed); test: co-immunoprecipitation with anti-p21 from transfected HCT116 cells, anti-HA Western blot
T3 construct: Both are written as one molecule; also called p21^wafl
Method: as §1

[4] = target: Cdk2 (human, UniProt P24941 1-298); test: GST pull-down from RKO cell lysate, anti-Cdk2 immunoblot
[5] = target: T4, Cyclin B1 (human, UniProt P14635 1-433); test: GST pull-down from RKO cell lysate, anti-cyclin B1 immunoblot
T4 construct: Endogenous cellular protein
T4 sequence (P14635 whole entry): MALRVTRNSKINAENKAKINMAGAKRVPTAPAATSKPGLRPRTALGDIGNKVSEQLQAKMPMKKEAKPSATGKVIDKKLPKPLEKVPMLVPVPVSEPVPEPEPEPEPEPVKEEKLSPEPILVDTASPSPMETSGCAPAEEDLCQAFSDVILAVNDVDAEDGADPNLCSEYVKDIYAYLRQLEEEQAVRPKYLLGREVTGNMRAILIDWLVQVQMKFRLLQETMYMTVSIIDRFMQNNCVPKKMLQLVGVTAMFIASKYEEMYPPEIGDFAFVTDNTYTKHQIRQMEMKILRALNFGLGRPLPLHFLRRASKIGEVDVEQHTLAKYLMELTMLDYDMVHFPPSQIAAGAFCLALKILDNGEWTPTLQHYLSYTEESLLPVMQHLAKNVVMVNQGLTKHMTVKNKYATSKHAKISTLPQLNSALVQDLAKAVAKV

T2 sequence (P06493 whole entry): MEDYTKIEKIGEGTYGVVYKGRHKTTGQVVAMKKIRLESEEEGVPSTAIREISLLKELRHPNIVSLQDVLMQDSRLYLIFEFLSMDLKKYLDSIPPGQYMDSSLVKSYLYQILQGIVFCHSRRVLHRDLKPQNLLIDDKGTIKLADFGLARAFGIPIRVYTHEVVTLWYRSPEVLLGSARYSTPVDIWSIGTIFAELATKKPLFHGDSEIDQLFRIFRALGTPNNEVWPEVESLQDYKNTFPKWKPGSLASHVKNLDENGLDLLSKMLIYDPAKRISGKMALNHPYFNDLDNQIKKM
T3 sequence (P38936 whole entry): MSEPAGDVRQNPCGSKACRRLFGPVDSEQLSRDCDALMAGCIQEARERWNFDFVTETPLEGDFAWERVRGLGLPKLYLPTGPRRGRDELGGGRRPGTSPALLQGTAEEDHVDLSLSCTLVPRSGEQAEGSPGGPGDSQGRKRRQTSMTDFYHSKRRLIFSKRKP
T1 sequence (P12004 whole entry): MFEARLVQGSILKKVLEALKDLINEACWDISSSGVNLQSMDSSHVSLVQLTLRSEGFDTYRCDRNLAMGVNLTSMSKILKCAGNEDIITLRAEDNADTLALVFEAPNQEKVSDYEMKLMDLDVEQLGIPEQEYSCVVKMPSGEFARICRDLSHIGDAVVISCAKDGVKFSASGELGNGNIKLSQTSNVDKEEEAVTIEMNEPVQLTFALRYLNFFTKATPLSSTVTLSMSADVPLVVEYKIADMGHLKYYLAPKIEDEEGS

B1: GADD45 deletion mutant del50-76 (HA-tagged) (other, not shown: small tags and cut ends)
chain: MTLEEFSAGEQKTERMDKVGDALEEVLSKALSQRTITVGVYEAAKLLNVLIQAFCCENDINILRVSNPGRLAELLLLETDAGPAASEGAEQPPDLHCVLVTNPHSSQWKDPALSQLICFCRESRYMDQWVPVINLPER
notes: The junction is not described
- binding result [1]: no binding
- binding result [2]: no binding
- binding result [3]: no binding

B2: glutathione-S-transferase (GST)/GADD45 fusion protein (other)
chain: TLEEFSAGEQKTERMDKVGDALEEVLSKALSQRTITVGVYEAAKLLNVDPDNVVLCLLAADEDDDRDVALQIHFTLIQAFCCENDINILRVSNPGRLAELLLLETDAGPAASEGAEQPPDLHCVLVTNPHSSQWKDPALSQLICFCRESRYMDQWVPVINLPER
notes: GADD45 insert was amplified from pHul45B2 and cloned XhoI/NotI into pGEX4T; also called GST-tagged GADD45; not shown: Glutathione-S-transferase encoded by the pGEX4T vector (Pharmacia)
- binding result [4]: no binding (tested: 100 ng)
- binding result [5]: no binding (tested: 100 ng)
